Reference: US20250228957A1 (BIOHAVEN THERAPEUTICS, published 2025)

Legend:
[1] = biological target: Deglycosylated IgA (dg-IgA) (human, UniProt P01876-1 1-353, Human serum IgA was treated with PNGase, neuraminidase, and galactosidase; conjugated to Alexa Fluor 594 in the cell uptake assays); experiment: cell-based or functional assay
[2] = biological target: Total IgA; experiment: cell-based or functional assay

Deglycosylated IgA (dg-IgA), sequence (P01876 other isoform, or with tags, fused parts or gaps): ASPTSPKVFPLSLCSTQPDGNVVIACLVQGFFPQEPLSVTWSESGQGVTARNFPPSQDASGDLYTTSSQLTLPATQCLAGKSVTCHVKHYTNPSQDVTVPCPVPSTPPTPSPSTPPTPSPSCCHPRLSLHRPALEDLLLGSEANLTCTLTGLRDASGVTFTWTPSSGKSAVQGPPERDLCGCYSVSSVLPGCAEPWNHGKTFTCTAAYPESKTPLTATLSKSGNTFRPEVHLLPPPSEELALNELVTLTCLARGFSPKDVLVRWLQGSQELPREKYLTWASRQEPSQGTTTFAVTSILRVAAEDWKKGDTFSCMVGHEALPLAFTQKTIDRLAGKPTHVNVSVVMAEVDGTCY

B1: ABT030 (chimeric LALA PA mutant Km55 antibody) (antibody, human IgG1, kappa, L234A L235A, V domains shown)
VH: ELQLQESGPGLVKPSQSLSLTCSVTGYSIRSNYWGWIRKFPGNKMEWMGYITYSGGTYYNPSLKSRISITRDTSKNQFFLQLTSVTTEDTATYYCTRWGDWYFDFWGPGTKVTVSP
VL: DVVLTQTPPPLSVAIGQSVSISCKSSQSLVHTDGKTYLHWLLQSPGQSPKLLIYQVSNLGSGVPDRFSGTGSQKDFTLKISRVEAEDLGVYYCVQATHFPLTFGIGTKLELQR
- EC50, Assay #1, uptake of A594-labelled cargo by HEK293 (+ASGPR) cells [1]: 0.353 nM
- EC50, Assay #3, uptake of A594-labelled cargo by HEK293 (+ASGPR) cells [1]: 3.53 nM
- S/N, Assay #1, uptake of A594-labelled cargo by HEK293 (+ASGPR) cells [1]: 4.3 signal-to-noise ratio
- S/N, Assay #2, uptake of A594-labelled cargo by HEK293 (+ASGPR) cells [1]: 3.7 signal-to-noise ratio
- S/N, Assay #3, uptake of A594-labelled cargo by HEK293 (+ASGPR) cells [1]: 7.1 signal-to-noise ratio
- EC50, Assay #1, uptake of A594-labelled cargo by HEK293 (+ASGPR) cells [2]: 7.15 nM
